Data: paper PMC2290880 (The Journal of Cell Biology, 1993)

Biological target: T1, Sec63p (Saccharomyces cerevisiae (endogenous in …, UniProt P14906 1-663))
T1 sequence (looked up): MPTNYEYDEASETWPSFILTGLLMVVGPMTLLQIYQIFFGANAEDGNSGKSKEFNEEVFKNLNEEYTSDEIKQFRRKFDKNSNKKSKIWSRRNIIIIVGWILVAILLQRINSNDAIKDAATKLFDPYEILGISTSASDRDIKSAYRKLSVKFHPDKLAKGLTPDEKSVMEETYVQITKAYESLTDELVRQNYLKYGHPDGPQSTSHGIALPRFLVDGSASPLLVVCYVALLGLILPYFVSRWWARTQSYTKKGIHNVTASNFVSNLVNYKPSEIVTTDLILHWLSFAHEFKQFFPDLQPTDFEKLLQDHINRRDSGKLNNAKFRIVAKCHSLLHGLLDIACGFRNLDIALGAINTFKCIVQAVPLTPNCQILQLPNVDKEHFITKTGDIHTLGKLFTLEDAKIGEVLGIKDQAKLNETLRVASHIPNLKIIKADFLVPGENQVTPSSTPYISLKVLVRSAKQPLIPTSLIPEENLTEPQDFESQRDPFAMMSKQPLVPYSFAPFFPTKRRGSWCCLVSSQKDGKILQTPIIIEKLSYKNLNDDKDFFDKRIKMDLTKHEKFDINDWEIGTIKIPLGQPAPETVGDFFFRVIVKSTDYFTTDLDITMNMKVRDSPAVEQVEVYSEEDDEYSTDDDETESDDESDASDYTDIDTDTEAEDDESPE
Test: co-elution on hydroxylapatite chromatography

stoichiometry N: 1.4 Sec63p per BiP
B1: BiP/Kar2p (natural protein)
chain: not shown
